Results taken from US20100136005A1 (Genentech, published 2010).

Columns and labels:
rhesus CD11a [1] = biological target: T1, rhesus CD11a (rhesus, UniProt H9Z8N3 26-1169); assay: binding to rhesus peripheral blood lymphocytes
T1 construct: whole, on cells; also called rhCD11a
T1 sequence: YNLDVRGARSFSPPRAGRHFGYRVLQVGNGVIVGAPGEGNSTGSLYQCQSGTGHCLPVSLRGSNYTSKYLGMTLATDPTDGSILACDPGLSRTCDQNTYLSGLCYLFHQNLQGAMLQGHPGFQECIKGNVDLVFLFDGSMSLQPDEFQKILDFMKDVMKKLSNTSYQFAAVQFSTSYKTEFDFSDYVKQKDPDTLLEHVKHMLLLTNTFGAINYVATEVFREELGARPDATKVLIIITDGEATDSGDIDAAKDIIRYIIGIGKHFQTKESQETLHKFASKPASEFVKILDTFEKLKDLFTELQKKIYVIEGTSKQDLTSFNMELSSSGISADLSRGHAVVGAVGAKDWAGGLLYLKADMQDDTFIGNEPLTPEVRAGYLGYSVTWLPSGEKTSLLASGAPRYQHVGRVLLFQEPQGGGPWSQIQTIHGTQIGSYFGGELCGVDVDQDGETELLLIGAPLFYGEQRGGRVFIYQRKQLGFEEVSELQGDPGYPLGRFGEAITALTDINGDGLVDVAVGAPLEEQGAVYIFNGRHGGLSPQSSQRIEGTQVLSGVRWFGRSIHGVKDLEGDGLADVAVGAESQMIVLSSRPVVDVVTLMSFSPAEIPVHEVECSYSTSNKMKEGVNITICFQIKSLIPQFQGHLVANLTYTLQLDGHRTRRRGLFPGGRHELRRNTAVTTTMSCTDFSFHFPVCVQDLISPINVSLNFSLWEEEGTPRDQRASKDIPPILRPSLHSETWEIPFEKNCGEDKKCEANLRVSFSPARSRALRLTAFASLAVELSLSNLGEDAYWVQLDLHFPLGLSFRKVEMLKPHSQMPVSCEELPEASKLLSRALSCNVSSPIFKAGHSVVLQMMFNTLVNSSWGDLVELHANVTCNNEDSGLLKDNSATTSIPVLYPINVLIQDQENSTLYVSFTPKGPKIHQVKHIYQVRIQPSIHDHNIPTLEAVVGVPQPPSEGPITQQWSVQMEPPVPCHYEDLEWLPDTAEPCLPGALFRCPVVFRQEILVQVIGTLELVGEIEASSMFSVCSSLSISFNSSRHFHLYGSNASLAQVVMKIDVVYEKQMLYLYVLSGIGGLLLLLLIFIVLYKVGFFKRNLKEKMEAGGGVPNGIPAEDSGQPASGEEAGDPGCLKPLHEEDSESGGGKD

human CD11a [2] = biological target: T2, human CD11a (human, UniProt P20701 26-1170); assay: FACScan, Jurkat cells
T2 construct: whole, on cells; On cells as LFA-1 together with CD18; also called alpha subunit of LFA-1 (CD11a/CD18)
Procedure: (§1) Aliquots of 10⁶ Jurkat T-cells were incubated with serial dilutions of humanized and control antibodies in PBS-0.1% BSA-10 mM sodium azide for 45 min at 4° C. The cells were washed and then incubated in fluorescein-conjugated goat anti-human F(ab′)₂ (Organon Teknika, Westchester, Pa.) for 45 min at 4° C. Cells were washed and analysed on a FACScan (Becton Dickinson, Mountain View, Calif.). 8×10³ cells were acquired by list mode and gated by forward light scatter versus side light scatter, thereby excluding dead cells and debris.

human CD11a [3] = biological target: T2, human CD11a; assay: FACScan, Jurkat cells; ratio to HuIgG1 EC50 (0.042 nM)
Procedure: as §1

rhesus CD11a [4] = biological target: T1, rhesus CD11a; assay: binding to rhesus peripheral blood lymphocytes; ratio to HuIgG1 EC50 (45.6 nM)
human CD11a [5] = biological target: T2, human CD11a; assay: cell-based or functional assay
human CD11a [6] = biological target: T2, human CD11a; assay: cell-based or functional assay; remark: listed apart in the source
rhesus CD11a [7] = biological target: T1, rhesus CD11a; assay: cell binding, rhesus against human CD11a

B1: AspH54Ala (antibody, human IgG1, V domains shown)
VH: EVQLVESGGGLVQPGGSLRLSCAASGYSFTGHWMNWVRQAPGKGLEWVGMIHPSASETRYNQKFKDRFTISVDKSKNTLYLQMNSLRAEDTAVYYCARGIYFYGTTYFDYWGQGTLVTVSS
VL: DIQMTQSPSSLSASVGDRVTITCRASKTISKYLAWYQQKPGKAPKLLIYSGSTLQSGVPSRFSGSGSGTDFTLTISSLQPEDFATYYCQQHNEYPLTFGQGTKVEIK
notes: HuIgG1 variant (human IgG1); also called AspH54 change to Ala
fold improvement over HuIgG1 (rhesus CD11a [1]): 3 fold

B2: humanized MHM24 F(ab)-4 (Fab, V domains shown)
VH: EVQLVESGGGLVQPGGSLRLSCAASGFSFTGHWMNWVRQAPGKGLEWVGMIHPSDSETRYNQKFKDRFTISRDNSKNTLYLQMNSLRAEDTAVYYCARGIYFYGTTYFDYWGQGTLVTVSS
VL: DIQMTQSPSSLSASVGDRVTITCRASKTISKYLAWYQQKPGKAPKLLIYSGSSLESGVPSRFSGSGSGTDFTLTISSLQPEDFATYYCQQHNEYPLTFGQGTKVEIK
fold reduction in binding (against F(ab)-2) (human CD11a [2]): 3 fold

B3: AspH54Asn (antibody, human IgG1, V domains shown)
VH: EVQLVESGGGLVQPGGSLRLSCAASGYSFTGHWMNWVRQAPGKGLEWVGMIHPSNSETRYNQKFKDRFTISVDKSKNTLYLQMNSLRAEDTAVYYCARGIYFYGTTYFDYWGQGTLVTVSS
VL: DIQMTQSPSSLSASVGDRVTITCRASKTISKYLAWYQQKPGKAPKLLIYSGSTLQSGVPSRFSGSGSGTDFTLTISSLQPEDFATYYCQQHNEYPLTFGQGTKVEIK
notes: HuIgG1 variant (human IgG1); also called AspH54 change to Asn
fold improvement of rhesus binding (against HuIgG1) (rhesus CD11a [1]): 10 fold
Variant EC50/HuIgG1 EC50 (human CD11a [3]): 26 ratio
Variant EC50/HuIgG1 EC50 (rhesus CD11a [4]): 0.1 ratio

B4: humanized MHM24 F(ab)-6 (Fab, V domains shown)
VH: EVQLVESGGGLVQPGGSLRLSCAASGFSFTGHWMNWVRQAPGKGLEWVGMIHPSDSETRYNQKFKDRFTISVDKSSSTLYLQMNSLRAEDTAVYYCARGIYFYGTTYFDYWGQGTLVTVSS
VL: DIQMTQSPSSLSASVGDRVTITCRASKTISKYLAWYQQKPGKAPKLLIYSGSTLQSGVPSRFSGSGSGTDFTLTISSLQPEDFATYYCQQHNEYPLTFGQGTKVEIK
notes: F(ab) with human CL and CH1; Worked back from F(ab)-8
fold improvement in binding (against F(ab)-5) (human CD11a [2]): 4 fold

B5: AspH54Gln (antibody, human IgG1, V domains shown)
VH: EVQLVESGGGLVQPGGSLRLSCAASGYSFTGHWMNWVRQAPGKGLEWVGMIHPSQSETRYNQKFKDRFTISVDKSKNTLYLQMNSLRAEDTAVYYCARGIYFYGTTYFDYWGQGTLVTVSS
VL: DIQMTQSPSSLSASVGDRVTITCRASKTISKYLAWYQQKPGKAPKLLIYSGSTLQSGVPSRFSGSGSGTDFTLTISSLQPEDFATYYCQQHNEYPLTFGQGTKVEIK
notes: HuIgG1 variant (human IgG1); also called AspH54 change to Gln
Variant EC50/HuIgG1 EC50 (human CD11a [3]): 20 ratio
Variant EC50/HuIgG1 EC50 (rhesus CD11a [4]): 4.4 ratio

B6: AspH54Ser (antibody, human IgG1, V domains shown)
VH: EVQLVESGGGLVQPGGSLRLSCAASGYSFTGHWMNWVRQAPGKGLEWVGMIHPSSSETRYNQKFKDRFTISVDKSKNTLYLQMNSLRAEDTAVYYCARGIYFYGTTYFDYWGQGTLVTVSS
VL: DIQMTQSPSSLSASVGDRVTITCRASKTISKYLAWYQQKPGKAPKLLIYSGSTLQSGVPSRFSGSGSGTDFTLTISSLQPEDFATYYCQQHNEYPLTFGQGTKVEIK
notes: HuIgG1 variant (human IgG1); also called AspH54 change to Ser
Variant EC50/HuIgG1 EC50 (rhesus CD11a [4]): 0.9 ratio

B7: H2 (antibody, human IgG1, V domains shown)
VH: EVQLVESGGGLVQPGGSLRLSCAASGYSFTGHWMNWVRQAPGKGLEWVGMIAPADAETRYNQKFKDRFTISVDKSKNTLYLQMNSLRAEDTAVYYCARGIYFYGTTYFDYWGQGTLVTVSS
VL: DIQMTQSPSSLSASVGDRVTITCRASKTISKYLAWYQQKPGKAPKLLIYSGSTLQSGVPSRFSGSGSGTDFTLTISSLQPEDFATYYCQQHNEYPLTFGQGTKVEIK
notes: HuIgG1 variant (human IgG1); also called variant H2; HisH52Ala/SerH53Ala/SerH55Ala
fold better than HuIgG1 (rhesus CD11a [1]): 18 fold

B8: humanized MHM24 F(ab)-7 (Fab, V domains shown)
VH: EVQLVESGGGLVQPGGSLRLSCAASGYSFTGHWMNWVRQAPGKGLEWVGMIHPSDSETRYNQKFKDRFTISVDKSSSTLYLQMNSLRAEDTAVYYCARGIYFYGTTYFDYWGQGTLVTVSS
VL: DIQMTQSPSSLSASVGDRVTITCRASKTISKYLAWYQQKPGKAPKLLIYSGSTLQSGVPSRFSGSGSGTDFTLTISSLQPEDFATYYCQQHNEYPLTFGQGTKVEIK
notes: as for B4
fold improvement in binding (against F(ab)-6) (human CD11a [2]): 3 fold

B9: AspH54Glu (antibody, human IgG1, V domains shown)
VH: EVQLVESGGGLVQPGGSLRLSCAASGYSFTGHWMNWVRQAPGKGLEWVGMIHPSESETRYNQKFKDRFTISVDKSKNTLYLQMNSLRAEDTAVYYCARGIYFYGTTYFDYWGQGTLVTVSS
VL: DIQMTQSPSSLSASVGDRVTITCRASKTISKYLAWYQQKPGKAPKLLIYSGSTLQSGVPSRFSGSGSGTDFTLTISSLQPEDFATYYCQQHNEYPLTFGQGTKVEIK
notes: HuIgG1 variant (human IgG1); also called AspH54 change to Glu
Variant EC50/HuIgG1 EC50 (human CD11a [3]): 16 ratio

B10: H2A1 (antibody, human IgG1, V domains shown)
VH: EVQLVESGGGLVQPGGSLRLSCAASGYSFTGHWMNWVRQAPGKGLEWVGMIAPADSETRYNQKFKDRFTISVDKSKNTLYLQMNSLRAEDTAVYYCARGIYFYGTTYFDYWGQGTLVTVSS
VL: DIQMTQSPSSLSASVGDRVTITCRASKTISKYLAWYQQKPGKAPKLLIYSGSTLQSGVPSRFSGSGSGTDFTLTISSLQPEDFATYYCQQHNEYPLTFGQGTKVEIK
notes: HuIgG1 variant (human IgG1); also called HisH52Ala/SerH53Ala; HisH52Ala-SerH53Ala
fold improvement in binding compared to HuIgG1 (rhesus CD11a [1]): 77 fold

B11: GluH56Ala (antibody, human IgG1, V domains shown)
VH: EVQLVESGGGLVQPGGSLRLSCAASGYSFTGHWMNWVRQAPGKGLEWVGMIHPSDSATRYNQKFKDRFTISVDKSKNTLYLQMNSLRAEDTAVYYCARGIYFYGTTYFDYWGQGTLVTVSS
VL: DIQMTQSPSSLSASVGDRVTITCRASKTISKYLAWYQQKPGKAPKLLIYSGSTLQSGVPSRFSGSGSGTDFTLTISSLQPEDFATYYCQQHNEYPLTFGQGTKVEIK
notes: HuIgG1 variant (human IgG1)
fold improvement over HuIgG1 (rhesus CD11a [1]): 3 fold

B12: humanized MHM24 F(ab)-5 (Fab, V domains shown)
VH: EVQLVESGGGLVQPGGSLRLSCAASGFSFTGHWMNWVRQAPGKGLEWVGMIHPSDSETRYNQKFKDRFTISVDKSSSTLYLQMNSLRAEDTAVYYCARGIYFYGTTYFDYWGQGTLVTVSS
VL: DIQMTQSPSSLSASVGDRVTITCRASKTISKYLAWYQQKPGKAPKLLIYSGSSLESGVPSRFSGSGSGTDFTLTISSLQPEDFATYYCQQHNEYPLTFGQGTKVEIK
notes: as for B4
fold improvement in binding (against F(ab)-2) (human CD11a [2]): 23 fold

B13: AspH54Lys (antibody, human IgG1, V domains shown)
VH: EVQLVESGGGLVQPGGSLRLSCAASGYSFTGHWMNWVRQAPGKGLEWVGMIHPSKSETRYNQKFKDRFTISVDKSKNTLYLQMNSLRAEDTAVYYCARGIYFYGTTYFDYWGQGTLVTVSS
VL: DIQMTQSPSSLSASVGDRVTITCRASKTISKYLAWYQQKPGKAPKLLIYSGSTLQSGVPSRFSGSGSGTDFTLTISSLQPEDFATYYCQQHNEYPLTFGQGTKVEIK
notes: HuIgG1 variant (human IgG1); also called AspH54 change to Lys
Variant EC50/HuIgG1 EC50 (rhesus CD11a [4]): 3.8 ratio

B14: murine MHM24 (antibody, V domains shown)
VH: EVQLQQPGAELMRPGASVKLSCKASGYSFTGHWMNWVRQRPGQGLEWIGMIHPSDSETRLNQKFKDKATLTVDKSSSSAYMQLSSPTSEDSAVYYCARGIYFYGTTYFDYWGQGTTLTVSS
VL: DVQITQSPSYLAASPGETISINCRASKTISKYLAWYQEKPGKTNKLLIYSGSTLQSGIPSRFSGSGSGTDFTLTISSLEPEDFAMYYCQQHNEYPLTFGTGTKLELKR
notes: Murine anti-human CD11a MAb; also called muMHM24; murMHM24
IC50 Value (nM), Jurkat:HuK cell adhesion (human CD11a [5]): 0.09 nM
IC50 Value (nM), human mixed lymphocyte response (human CD11a [6]): 0.19 nM
fold reduction in binding (rhesus against human CD11a) (rhesus CD11a [7]): ~1000 fold

B15: chimeric MHM24 IgG1 (antibody, V domains shown)
VH: EVQLQQPGAELMRPGASVKLSCKASGYSFTGHWMNWVRQRPGQGLEWIGMIHPSDSETRLNQKFKDKATLTVDKSSSSAYMQLSSPTSEDSAVYYCARGIYFYGTTYFDYWGQGTTLTVSS
VL: DVQITQSPSYLAASPGETISINCRASKTISKYLAWYQEKPGKTNKLLIYSGSTLQSGIPSRFSGSGSGTDFTLTISSLEPEDFAMYYCQQHNEYPLTFGTGTKLELKR
IC50 Value (nM), Jurkat:HuK cell adhesion (human CD11a [5]): 0.1 nM
